Laboratory results published in patent US20230277628A1, “METHODS FOR PROMOTING ANTI-TUMOR IMMUNE RESPONSE IN A SUBJECT IN NEED THEREOF USING ENCAPSULATED INTERLEUKIN 12” (Spectrum Pharmaceuticals, Inc., priority 2022, published 2023).

B1: rmIL-12: mouse recombinant IL-12, unencapsulated control; 1 µg equivalent to mPCX12 1 mg (protein, UniProt P43431 23-215; P43432 23-335, looked up)
Interleukin-12 subunit alpha: RVIPVSGPARCLSQSRNLLKTTDDMVKTAREKLKHYSCTAEDIDHEDITRDQTSTLKTCLPLELHKNESCLATRETSSTTRGSCLPPQKTSLMMTLCLGSIYEDLKMYQTEFQAINAALQNHNHQQIILDKGMLVAIDELMQSLNHNGETLRQKPPVGEADPYRVKMKLCILLHAFSTRVVTINRVMGYLSSA
Interleukin-12 subunit beta: MWELEKDVYVVEVDWTPDAPGETVNLTCDTPEEDDITWTSDQRHGVIGSGKTLTITVKEFLDAGQYTCHKGGETLSHSHLLLHKKENGIWSTEILKNFKNKTFLKCEAPNYSGRFTCSWLVQRNMDLKFNIKSSSSSPDSRAVTCGMASLSAEKVTLDQRDYEKYSVSCQEDVTCPTAEETLPIELALEARQQNKYENYSTSFFIRDIIKPDPPKNLQMKPLKNSQVEVSWEYPDSWSTPHSYFSLKFFVRIQRKKEKMKETEEGCNQKGAFLVEKTSTEVQCKGGNVCVQAQDRYYNSSCSKWACVPCRVRS

Legend:
[1] = test system: GL-261 glioma cells; assay: Survival in the GL-261 orthotopic murine glioma model; assay type: in vivo; conditions: for # censored mice: n=22, Day 71
Method: (§1) In an orthotopic murine glioma model, C57B6 mice were inoculated with 3 × 10^5 GL-261 glioma cells in the frontal lobe via intracranial injection with drug treatment on Day 5. Mice were randomly assigned (n=22/group) to receive a single intratumoral dose of mPCX12 at 0.5, 0.75, and 1 mg, or mrIL-12 1 µg (equivalent to mPCX12 1 mg) or empty shells or vehicle. In addition, lomustine (6 mg/kg, QDx5 i.p.) was also assessed. […] At 1 mg mPCX12, tumor IL-12 and IFNy levels were 2069±631 and 646±8 pg/mg respectively on Day 3. […] At Day 90, 41%, 45%, and 55% of the animals that received doses of 0.5, 0.75 or 1 mg mPCX12, respectively, were alive with median survival >90 days (last day of study).
In a second study, GL-261 inoculated mice (n=22 per group) received a single dose of mPCX12 at 0.5, 0.75, and 1 mg. Control treatment groups were, mrIL-12, 0.5 and 1 µg (equivalent to mPCX12 0.5 and 1 mg) or empty shells (1 mg) or vehicle control intratumoral. In addition, lomustine (6 mg/kg, QDx5 i.p.) was also assessed. Day 71 was the last day of the study. Animals were euthanized when they became moribund.
PCX12 (1 mg) >50% of mice survived to the end of the study (Day 71) and were tumor-free.

[2] = test system: GL-261 glioma cells; design: species or system C57B6 mice; conditions: mouse, in vivo
Method: as §1
In the first study, six days post GL-261 inoculation, a single dose of mPCX12 at 0.5, 0.75, and 1 mg was administered to 4 animals per timepoint (TP). Control treatment groups were, mrIL-12 1 µg (equivalent to mPCX12 1 mg) or empty shells. In addition, lomustine (6 mg/kg, QDx5 i.p.) was also assessed. At 3- and 7-days post drug administration, animals were euthanized, serum and tumor IL-12 and IFN-γ levels were determined via ELISA.
Low levels of IL-12 and IFN-γ observed in the systemic circulation of mPCX12 and mrIL-12 groups. FIGS. 1A-D: All values expressed as Mean +/- SEM; n=4 per timepoint; ND: Not Detected.

Row | Molecule | % alive at 71 Days Post Treatment ([1]; Lomustine 6 mg/kg QDx5 i.p.) [%] | # censored mice ([1]; Lomustine 6 mg/kg QDx5 i.p.) | Median survival ([1]; Lomustine 6 mg/kg QDx5 i.p., study end Day 71) [days] | Median survival ([1]; lomustine 6 mg/kg QDx5 i.p., text b126 (last day of study Day 90)) [days] | IL-12 and IFNγ in the systemic circulation [2] | tumor IL-12 persistence by Day 7 [2] | Median survival ([1]; mrIL-12 1 µg intratumoral, text b126 (last day of study Day 90)) [days] | % alive at 71 Days Post Treatment ([1]; rmIL-12 0.5 µg) [%] | Median survival ([1]; rmIL-12 0.5 µg intratumoral, study end Day 71) [days] | # censored mice ([1]; rmIL-12 0.5 µg) | % alive at 71 Days Post Treatment ([1]; rmIL-12 1 µg) [%] | Median survival ([1]; rmIL-12 1 µg intratumoral, study end Day 71) [days] | # censored mice ([1]; rmIL-12 1 µg)
1 | O=NN(CCCl)C(=O)NC1CCCCC1 [Lomustine, lomustine, reference compound] | 18 | 4 | 38 | 20 | – | – | – | – | – | – | – | – | –
2 | B1 | – | – | – | – | Low levels | returned to baseline | 37 | 45 | 38 | 10 | 41 | 37 | 9
